First the molecules themselves.
B1: HPV16 E6 38 VYCKQQLL (peptide)
peptide: VYCKQQLL
modifications: not checked
B2: HPV16 E6 131 … (peptide)
peptide: RFHNIRGRW
modifications: not checked
B3: HPV18 E7 peptide … (position 43, 9 amino acids) (peptide)
peptide: GVNHQHLPA
modifications: not checked
B4: HPV18 E7 peptide KLVVESSA (position 73, 8 amino acids) (peptide)
peptide: KLVVESSA
modifications: not checked
B5: HPV18 E7 peptide FLNTLSFV (position 90, 8 amino acids) (peptide)
peptide: FLNTLSFV
modifications: not checked
B6: HPV18 E7 peptide … (position 14, 10 amino acids) (peptide)
peptide: HLEPQNEIPV
modifications: not checked
B7: HPV18 E7 peptide … (position 73, 11 amino acids) (peptide)
peptide: KLVVESSADDL
modifications: not checked
B8: HPV18 E7 peptide … (position 61, 10 amino acids) (peptide)
peptide: MLCMCCKCEA
modifications: not checked
B9: HPV18 E7 peptide … (position 74, 10 amino acids) (peptide)
peptide: LVVESSADDL
modifications: not checked
B10: HPV18 E7 peptide HLEPQNEI (position 14, 8 amino acids) (peptide)
peptide: HLEPQNEI
modifications: not checked
B11: HPV18 E7 peptide … (position 84, 10 amino acids) (peptide)
peptide: RAFQQLFLNT
modifications: not checked
B12: HPV18 E7 peptide … (position 12, 10 amino acids) (peptide)
peptide: VLHLEPQNEI
modifications: not checked
B13: HPV18 E7 peptide … (position 75, 9 amino acids) (peptide)
peptide: VVESSADDL
modifications: not checked
B14: HPV18 E1 216 peptide … (peptide)
peptide: AVFKDTYGL
modifications: not checked
B15: HPV18 E1 273 peptide … (peptide)
peptide: CLDCKWGVLI
modifications: not checked
B16: … (HPV16 E6, position 143, 9 amino acids) (peptide)
peptide: CMSCCRSSR
modifications: not checked
B17: … (HPV16 E6, position 146, 9 amino acids) (peptide)
peptide: CCRSSRTRR
modifications: not checked
B18: … (HPV16 E6, position 68, 10 amino acids) (peptide)
peptide: AVCDKCLKFY
modifications: not checked
B19: AVCDKCLK (HPV16 E6, position 68, 8 amino acids) (peptide)
peptide: AVCDKCLK
modifications: not checked
B20: … (HPV16 E6, position 7, 9 amino acids) (peptide)
peptide: AMFQDPQER
modifications: not checked
B21: HPV16 E7 peptide DIRTLEDL (position 75, 8 amino acids) (peptide)
peptide: DIRTLEDL
modifications: not checked
B22: HPV16 E7 peptide LMGTLGIV (position 83, 8 amino acids) (peptide)
peptide: LMGTLGIV
modifications: not checked
B23: HPV16 E7 peptide … (position 14, 9 amino acids) (peptide)
peptide: DLQPETTDL
modifications: not checked
B24: HPV16 E7 peptide LLMGTLGI (position 82, 8 amino acids) (peptide)
peptide: LLMGTLGI
modifications: not checked
B25: HPV16 E7 peptide … (position 12, 11 amino acids) (peptide)
peptide: MLDLQPETTDL
modifications: not checked
B26: HPV16 E6 peptide … (position 29, 10 amino acids) (peptide)
peptide: TIHDIILECV
modifications: not checked
B27: HPV16 E7 peptide … (position 73, 10 amino acids) (peptide)
peptide: HVDIRTLEDL
modifications: not checked
B28: HPV16 E7 peptide … (position 81, 9 amino acids) (peptide)
peptide: DLLMGTLGI
modifications: not checked
B29: HPV16 E7 peptide MLDLQPET (position 12, 8 amino acids) (peptide)
peptide: MLDLQPET
modifications: not checked
B30: HPV16 E7 peptide … (position 81, 10 amino acids) (peptide)
peptide: DLLMGTLGIV
modifications: not checked
B31: HPV16 E7 peptide … (position 66, 9 amino acids) (peptide)
peptide: RLCVQSTHV
modifications: not checked
B32: HPV16 E7 peptide … (position 12, 9 amino acids) (peptide)
peptide: MLDLQPETT
modifications: not checked
B33: HPV16 E7 peptide … (position 77, 10 amino acids) (peptide)
peptide: RTLEDLLMGT
modifications: not checked
B34: HPV16 E7 44 … (peptide)
peptide: QAEPDRAHY
modifications: not checked
B35: HPV16 E7 58 … (peptide)
peptide: CCKCDSTLR
modifications: not checked
B36: HPV16 E7 68 … (peptide)
peptide: CVQSTHVDIR
modifications: not checked
B37: HPV31 E1 566 … (A03 motif peptide) (peptide)
peptide: FTFPNPFPF
modifications: not checked
B38: HPV16 E6 39 … (peptide)
peptide: YCKQQLLRR
modifications: not checked
B39: HPV16 E7 89 … (peptide)
peptide: IVCPICSQK
modifications: not checked
B40: HPV16 E7 88 … (peptide)
peptide: GIVCPICSQK
modifications: not checked
B41: HPV16 E7 2 … (peptide)
peptide: HGDTPTLHEY
modifications: not checked

One assay addresses HLA-A*2402 (human).
Assay: not given
Conditions: not given
In the case of B1, the relative binding ratio (IC50 of standard peptide / IC50 of test peptide) is 0.0069.

The assay is the same for the next values; noted with them: remark: other sources report otherwise.
As for B2, the relative binding ratio (IC50 of standard peptide / IC50 of test peptide) stood at 0.022.

Another assay has as its target HLA-A*0201 (human). Put plainly: competition with 125I-labeled standard peptide for purified HLA-A*0201, gel filtration.
Conditions: not given
B3: the relative binding ratio (IC50 of standard peptide / IC50 of test peptide) (ratio to standard peptide) was found to be 0.0001.
As for B4, the relative binding ratio (IC50 of standard peptide / IC50 of test peptide) (ratio to standard peptide) was determined as 0.0001.
Still for that read-out and setting: the value for B5 was 0.0079; that for B6 was 0.0001; that for B7 was 0.0001.
On the same count and under the same terms, in the case of B8 it was 0.0016; in that of B9, 0.0001; in that of B10, 0.0001.
For the molecule B11, the relative binding ratio (IC50 of standard peptide / IC50 of test peptide) (ratio to standard peptide) was found to be 0.0003.
On the same count and under the same terms, the value for B12 was 0.0001.
With B13, the relative binding ratio (IC50 of standard peptide / IC50 of test peptide) (ratio to standard peptide) was found to be 0.0003.
On the same count and under the same terms, the value for B14 was 0.014; that for B15 was 0.0002.

For the next assay, the target named is HLA-A*2402 (human).
Assay: not given
Conditions: not given
The source holds these as a separate data set.
As to B1, the relative binding ratio (IC50 of standard peptide / IC50 of test peptide) (ratio to standard peptide) stood at 0.0069.

The assay is the same for the next values; noted with them: remark: other sources report otherwise.
Regarding B2, the relative binding ratio (IC50 of standard peptide / IC50 of test peptide) (ratio to standard peptide) came to 0.022.

The target of the next assay is HLA-A*1101 (human). The experiment in a line: competition with 125I-labelled standard peptide on purified HLA-A*1101, gel filtration.
Conditions: not given
For B16, the binding affinity ratio (IC50 of standard peptide / IC50 of test peptide) (ratio to standard peptide) amounted to 0.0001.
On to B17, for which the binding affinity ratio (IC50 of standard peptide / IC50 of test peptide) (ratio to standard peptide) was found to be 0.0001.
With B18, the binding affinity ratio (IC50 of standard peptide / IC50 of test peptide) (ratio to standard peptide) came to 0.019.
As for B19, the binding affinity ratio (IC50 of standard peptide / IC50 of test peptide) (ratio to standard peptide) was 0.011.

The same assay, now with this note: remark: other sources report otherwise.
For B20, the binding affinity ratio (IC50 of standard peptide / IC50 of test peptide) (ratio to standard peptide) was 0.032.

Another assay concerns the target HLA-A*0201 (human). Put plainly: inhibition of binding of 125I-labelled standard peptide to purified HLA, gel filtration.
Conditions: not given
Regarding B21, the relative binding ratio (IC50 of standard peptide / IC50 of test peptide) was found to be 0.0001.
On the same count and under the same terms, in the case of B22 it was 0.0001; in that of B23, 0.0003; in that of B24, 0.0008.
Still for that read-out and setting: the value for B25 was 0.0005; that for B26 was 0.021.
Turning to B27, the relative binding ratio (IC50 of standard peptide / IC50 of test peptide) stood at 0.0001.
B28: the relative binding ratio (IC50 of standard peptide / IC50 of test peptide) amounted to 0.0002.

Staying with this assay, now noted: remark: other sources report otherwise.
For the molecule B29, the relative binding ratio (IC50 of standard peptide / IC50 of test peptide) came to 0.0001.
Same read-out and setting: in the case of B30 it was 0.0005; in that of B31, 0.0003.
Still for that read-out and setting: in the case of B32 it was 0.0028.
Same read-out and setting: the value for B33 was 0.0006.

The target in another assay is HLA-A*0301 (human). The experiment in a line: competitive inhibition of 125I-labelled standard peptide binding to purified HLA-A*0301, gel filtration.
Conditions: not given
For the molecule B34, the relative binding ratio (IC50 of standard peptide / IC50 of test peptide) (ratio to standard peptide) was 0.0002.
Consider B35, for which the relative binding ratio (IC50 of standard peptide / IC50 of test peptide) (ratio to standard peptide) turned out to be 0.0003.
The same measure, in the same setting: the value for B36 was 0.0049; that for B37 was 0.0008; that for B38 was 0.0003.

Still in this assay, the particulars now being: remark: other sources report otherwise.
On to B39, for which the relative binding ratio (IC50 of standard peptide / IC50 of test peptide) (ratio to standard peptide) worked out at 0.0077.
On the same count and under the same terms, in the case of B40 it was 0.0003; in that of B41, 0.0001.
